# In paper PMC2900185 (Biochemistry, 2010):
# Assays:
# [1] = biological target: Ste2p (R58A) (S. cerevisiae) (UniProt D6VTK4)
# [2] = test system: Ste2p containing the substitution R58A; test: Binding of α-factor to Ste2p with substitution R58A; design: species or system Saccharomyces cerevisiae
# Chain of UniProt D6VTK4 (D6VTK4 whole entry R58A): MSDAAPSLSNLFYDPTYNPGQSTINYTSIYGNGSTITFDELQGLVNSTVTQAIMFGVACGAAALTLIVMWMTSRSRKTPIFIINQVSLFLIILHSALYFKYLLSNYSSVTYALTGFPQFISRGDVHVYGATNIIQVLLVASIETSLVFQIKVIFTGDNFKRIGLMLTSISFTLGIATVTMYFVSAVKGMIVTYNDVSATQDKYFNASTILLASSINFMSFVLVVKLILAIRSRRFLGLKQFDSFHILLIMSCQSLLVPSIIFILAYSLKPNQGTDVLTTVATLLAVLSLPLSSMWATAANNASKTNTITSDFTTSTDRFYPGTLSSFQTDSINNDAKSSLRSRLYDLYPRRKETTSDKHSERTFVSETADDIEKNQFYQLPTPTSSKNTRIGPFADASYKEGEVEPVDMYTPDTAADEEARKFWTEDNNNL
fold higher Kd than wild-type Ste2p [1] [fold],Substance,fold lower affinity for α-factor relative to wild-type Ste2p [2] [fold]
10,α-factor (as used with the ste2 R58 mutants) (peptide),–
–,WHWLQLKPGQPMY [α-factor],~10
